Test results from patent US20250339531A1, “DUX4 POLYPEPTIDES AND NUCLEIC ACIDS FOR TREATING INFLAMMATORY AND AUTOIMMUNE CONDITIONS” (Fred Hutchinson Cancer Center, priority 2021, published 2025).
“Also recorded” adds a separate entry of the source.

B1: longCTDmL1dL2: longCTD with first (L)LxxL(L) motif disrupted and second deleted, SEQ ID NOS: 10 and 11 (protein)
chain: MDYKDHDGDYKDHDIDYKDDDDKPPKRMRREPKKKRKVGRAPAQAGGLCSAAPGGGHPAPSWVAFAHTGAWGTGLPAPHVPCAPGALPQGAFVSQAARAAPALQPSQAAPAEGISQPAPARGDFAYAAPAPPDGALSHPQAPRWPPHPGKSREDRDPQRDGLPGPCAVAQPGPAQAGPQGQGVLAPPTSQGSPWWGWGRGPQVAGAAWEPQAGAAPPPQPAPPDASASARQGQMQGIPAPSQALQEPAPWSALPCGLLAAEAAASPEFLQQAQPLLETEAPGELEASEEAASLEAPLSEEEYRA
B2: mouse Dux: mouse ortholog of human DUX4, SEQ ID NO:15, doxycycline inducible codon altered SEQ ID NO:16 (protein, listed as Mus musculus)
chain: MAEAGSPVGGSGVARESRRRRKTVWQAWQEQALLSTFKKKRYLSFKERKELAKRMGVSDCRIRVWFQNRRNRSGEEGHASKRSIRGSRRLASPQLQEELGSRPQGRGMRSSGRRPRTRLTSLQLRILGQAFERNPRPGFATREELARDTGLPEDTIHIWFQNRRARRRHRRGRPTAQDQDLLASQGSDGAPAGPEGREREGAQENLLPQEEAGSTGMDTSSPSDLPSFCGESQPFQVAQPRGAGQQEAPTRAGNAGSLEPLLDQLLDEVQVEEPAPAPLNLDGDPGGRVHEGSQESFWPQEEAGSTGMDTSSPSDSNSFCRESQPSQVAQPCGAGQEDARTQADSTGPLELLLLDQLLDEVQKEEHVPVPLDWGRNPGSREHEGSQDSLLPLEEAVNSGMDTSIPSIWPTFCRESQPPQVAQPSGPGQAQAPTQGGNTDPLELFLYQLLDEVQVEEHAPAPLNWDVDPGGRVHEGSWESFWPQEEAGSTGLDTSSPSDSNSFFRESKPSQVAQRRGAGQEDARTQADSTGPLELLLFDQLLDEVQKEEHVPAPLDWGRNPGSMEHEGSQDSLLPLEEAANSGRDTSIPSIWPAFCRKSQPPQVAQPSGPGQAQAPIQGGNTDPLELFLDQLLTEVQLEEQGPAPVNVEETWEQMDTTPDLPLTSEEYQTLLDML
B3: CIC-DUX4 fusion: Kitra-SRS CIC-DUX4 fusion protein containing the terminal 98 amino acids of DUX4, doxycycline inducible (protein)
chain: MDYKDHDGDYKDHDIDYKDDDDKPPKRMRREPKKKRKVNLEGTSGGILQKEFWRNRIQYNQSQKDILQSWFQHDPFPDKAAREQLAKEIGVPESNIQVWFKNYRVKQRKLDYKCFSEKDQTQGHDQSQHLTQEYLPKEARQKQTFITWTQKNRLVQAFERNPFPDIATRKKLAEQTGLQESRIQMWFQKQRSLYLKKSRMEPMNLLVDDPNERPDATVGWHPINLFLPTDSSHYFSCSHSSSGHETLPPVLPSTQAPWDPFRFHVSQGPNVMIMQPTQAVQEGEKSDQPLIIPNHLLTLPILTKDLDTPTPFWLQYQEEHQNHKEHSGSGVPQVKSHSQPEPEHREQQPLNLGQFDISNILQRWDEICQALLAEWEPLKGTH

Legend:
[1] = system: interferon-stimulated genes IFIH1, ISG20, CXCL9, and CD74; experiment: IFNG induction of interferon-stimulated genes, RT-qPCR in MB135 cells with doxycycline-inducible transgenes; format: cell-based, human; conditions: MB135 cells, doxycycline-induced transgene, continuous protocol, IFNG 16 h
Description: All myoblast experiments were conducted in immortalized MB135 or MB200 myoblast cell lines (isolated from a control or FSHD2 subject, respectively cultured in Ham's F-10 Nutrient Mix (Gibco) supplemented with 15% fetal bovine serum (Hyclone), 100 U/100 μg/ml penicillin/streptomycin (Gibco), 1 μM dexamethasone (Sigma), and 10 ng/ml recombinant human basic fibroblast growth factor (PeproTech). To differentiate the myoblasts to myotubes, media was changed to DMEM supplemented with 10 μg/ml insulin (Sigma) and 10 μg/ml transferrin (Sigma). Cell lines containing doxycycline-inducible transgenes were additionally cultured with 2 μg/mL puromycin (Sigma). Transgenes were induced with 1 μg/mL of doxycycline (Sigma) for 4 hours prior to other treatments for a total of 20 hrs. The Kitra-SRS cells (RRID:CVCL_YI69) were provided by Dr. H. Otani and Osaka University (Nakai et al., 2019) and were cultured in DMEM supplemented with 10% fetal bovine serum (Hyclone) and 100 U/100 μg/ml penicillin/streptomycin (Gibco). Biological replicates consisted of independent but parallel experiments, such as simultaneously stimulating three cell culture plates with IFNγ. Technical replicates consisted of repeat measurements of the same biological sample, such as loading the same biological sample in triplicate for analysis by RT-qPCR.
Myoblasts were transfected with either (final concentrations) 10 μM 2′,3′-cGAMP (Sigma Aldrich), 2 μg/mL poly(I:C) (Invitrogen), or 1 μg/mL 3′ppp-dsRNA RIG-I ligand (Dan Stetson Lab, UW) using Lipofectamine 2000 according to manufacturer's protocol, or were stimulated with 1000U IFNβ (PeproTech) or 200 ng/ml IFNγ (R+D Systems) by addition directly to cell culture medium. After 16 hours of immune stimulation, RNA was collected from cells using the NucleoSpin RNA Kit (Macherey-Nagel) according to manufacturer's instructions. RNA samples were quantified by nanodrop and 1 μg of RNA per sample was treated with DNase I Amplification Grade (Thermo Fisher), and then synthesized into cDNA using the Superscript IV First-Strand Synthesis System, including oligo dT primers (Invitrogen). qPCR was run in 384-well plates on an Applied Biosystems QuantStudio 6 Flex Real-Time PCR System (ABI) and analyzed in Microsoft Excel.

STAT1 = experiment: Anti-FLAG co-immunoprecipitation and western blot for STAT1; format: binding, human; conditions: anti-FLAG IP from MB135 cells ± IFNG
Description: Centrifugation at 2500 rcf at 4° C. for 5 min pelleted the nuclei, supernatant was discarded, and nuclei resuspended in 1 mL IP buffer pH 7.4 (25 mM Tris-HCl pH 7.5, 175 mM NaCl, 1 mM EDTA, 0.2% NP-40, 5% glycerol) and incubated for 1 hour at 4° C. with rotation then spun at 21000 rcf for 10 minutes at 4° C. to pellet insoluble debris. Protein concentration was determined using the Pierce BCA Protein Assay Kit (ThermoFisher, 23225). An equivalent amount of protein per sample was pre-cleared with Dynabeads Protein G (Invitrogen) bound to mouse IgG (Abcam #131368) for 1 hour at 4° C. with rotation. FLAG-tagged constructs were then immunoprecipitated with Dynabeads Protein G beads coupled to mouse anti-FLAG M2 mAb (Sigma F3165) for 3 hours at 4° C. with rotation. Beads were washed 3× with 1 mL IP buffer and eluted by adding 2× NuPage LDS Sample Buffer (Thermo Fisher, diluted from 4× with PBS) to the beads and heating for 10 minutes at 70° C.
Antibodies against STAT1 [EPR4407] (ab109320), pSTAT1 Y701 [M135] (ab29045), pSTAT1 S727 [EPR3146] (ab109461), YBX1 [EP2708Y] (ab76149), PABPC1 (ab21060), hnRNPM [EPR13509 (B)] (ab177957), PRKDC [Y393] (ab32566), and HSP90AB1 [EPR16621] (ab203085) were purchased from Abcam. Antibodies against FLAG tag [M2] (F1804) and [M2] (F3146) were purchased from Sigma Aldrich. Antibodies against DDX3X [D19B4] (8192S), hnRNPK [R332] (4675S), TRIM28 [C42G12] […]

Molecule	suppression of IFNG induction of ISGs (IFIH1, ISG20, CXCL9, CD74) [1]	suppression of IFNG induction of ISGs (IFIH1, ISG20, CXCL9, CD74) ([1]; listed as iDUX4-CTDmL1dL2)	co-immunoprecipitation with STAT1 / phosphorylated STAT1 (STAT1)	suppression of IFNG induction of ISGs (IFIH1, ISG20, CXCL9, CD74) ([1]; listed as Dux)	suppression of IFNG induction of ISGs (IFIH1, ISG20, CXCL9, CD74) ([1]; listed as mouse DUX)
B1	does not suppress any of the IFNG-induced ISG genes	did not block the panel of ISGs	both show binding to STAT1; also recorded: STAT1 is associated		
B2	completely blocked the IFNG induction of these ISG genes		confirmed the co-immunoprecipitation of STAT1 and both phosphorylated pSTAT1-Y701 and pSTAT1-S727	repress the panel of ISGs even more robustly than the full-length or CTD portion of human DUX4	completely blocked
B3	suppressed IFNγ-induction of ISGs IFIH1, CXCL9, and CD74, although not ISG20				
